From article PMC9814759, “Enzymatic kinetic resolution of desmethylphosphinothricin indicates that phosphinic group is a bioisostere of carboxyl group” (Communications Chemistry, 2020) come the findings set out here.

By Km is commonly meant the concentration of substrate that gives half-maximal velocity. Usually kcat stands for the maximal rate divided by the concentration of active sites. In general, kcat/Km refers to the second-order rate constant that governs catalysis at low substrate concentration.

Substrate in data set [1]: N[C@@H](CC[PH](=O)O)C(=O)O
The data set can be described thus: purified protein. The format is biochemical, Escherichia coli. As to conditions: 0.1 M Pyridine/HCl, pH 4.6, 0.1 mM DTT, 40 µM PLP, discontinuous assay.

Substrate in data set [2]: N[C@@H](CCC(=O)O)C(=O)O
As to the kind of experiment: purified protein. Type of data set: biochemical, Escherichia coli. As to conditions: 0.1 M Pyridine/HCl, pH 4.6, 0.1 mM DTT, 40 µM PLP, discontinuous assay.

B1: EcGadB (Escherichia coli K-12) (protein)
chain: MDKKQVTDLRSELLDSRFGAKSISTIAESKRFPLHEMRDDVAFQIINDELYLDGNARQNLATFCQTWDDENVHKLMDLSINKNWIDKEEYPQSAAIDLRCVNMVADLWHAPAPKNGQAVGTNTIGSSEACMLGGMAMKWRWRKRMEAAGKPTDKPNLVCGPVQICWHKFARYWDVELREIPMRPGQLFMDPKRMIEACDENTIGVVPTFGVTYTGNYEFPQPLHDALDKFQADTGIDIDMHIDAASGGFLAPFVAPDIVWDFRLPRVKSISASGHKFGLAPLGCGWVIWRDEEALPQELVFNVDYLGGQIGTFAINFSRPAGQVIAQYYEFLRLGREGYTKVQNASYQVAAYLADEIAKLGPYEFICTGRPDEGIPAVCFKLKDGEDPGYTLYDLSERLRLRGWQVPAFTLGGEATDIVVMRIMCRRGFEMDFAELLLEDYKASLKYLSDHPKLQGIAQQNSFKHT
notes: expressed and purified EcGadB (DEAE chromatography); no tag stated; PLP-dependent homohexamer; EC 4.1.1.15
Consider B1, for which, in data set [1], the Michaelis constant (Km) worked out at 39.82 ± 5.66 mM, the kcat was found to be 13.9 ± 0.58 s⁻¹ and the kcat/Km was found to be 350 ± 50 M⁻¹ s⁻¹. Moreover, in data set [2], the Michaelis constant (Km) is 0.84 ± 0.09 mM, the kcat came out at 78.2 ± 2.06 s⁻¹ and the specificity constant (kcat/Km) worked out at 92800 ± 10300 M⁻¹ s⁻¹.
